Drawing on publication PMC4251946, “The mechanism of H171T resistance reveals the importance of Nδ-protonated His171 for the binding of allosteric inhibitor BI-D to HIV-1 integrase” (Retrovirology, 2014), this text covers stoichiometry N and Kd for 3 molecules.

The target in assay [1] is H171T HIV-1 integrase (IN) (HIV-1). As to the kind of experiment: SEC; Superdex 200 10/300 GL; 20 mM HEPES pH 6.8, 750 mM NaCl, 10 mM MgSO4, 0.2 mM EDTA, 5 mM BME, 5% glycerol, 200 μM ZnCl2; 4°C; tetramer and monomer peaks. (In general: Size exclusion chromatography separates by hydrodynamic size, large species first.)
For assay [2] the target is unchanged. Briefly: AlphaScreen or HTRF.
Assay [3] addresses T1, LEDGF/p75 (UniProt O75475 1-530).
T1 construct: source: E. coli, purified as described previously [37]; not shown: FLAG, C-terminal, kept
Briefly: AlphaScreen or HTRF. As to conditions: both partners purified.

By stoichiometry N is commonly meant a count of units in the complex or per binding partner. Consider H171T HIV-1 integrase (IN) (enzyme), for which the stoichiometry N in assay [1] worked out at 4.
By Kd is commonly meant the equilibrium constant for the complex coming apart. Low values mean a tighter complex, high ones a looser complex. Molecule “LEDGF/p75 (from UniProt O75475 1-530) (natural protein)” gave a dissociation constant Kd in assay [2] of 10.5 nM.

B1: WT HIV-1 integrase (IN) (enzyme)
chain: FLDGIDKAQEEHEKYHSNWRAMASDFNLPPVVAKEIVASCDKCQLKGEAMHGQVDCSPGIWQLDCTHLEGKVILVAVHVASGYIEAEVIPAETGQETAYFLLKLAGRWPVKTVHTDNGSNFTSTTVKAACWWAGIKQEFGIPYNPQSQGVIESMNKELKKIIGQVRDQAEHLKTAVQMAVFIHNFKRKGGIGGYSAGERIVDIIATDIQTKELQKQITKIQNFRVYYRDSRDPVWKGPAKLLWKGEGAVVIQDNSDIKVVPRRKAKIIRDYGKQMAGDDCVASRQDED
notes: also called WT IN; source: E. coli, purified as described previously [37]; not shown: 6xHis, N-terminal, kept
Turning to B1, in assay [3], the Kd was 3.3 ± 0.3 nM.
